What was measured:
[1] = biological target: type IF CRISPR RNA guided surveillance complex (Csy) (UniProt Q02MM2); assay: differential scanning fluorimetry; purified Csy (0.323 uM) or AcrIF2-bound Csy (0.475 uM) in 100 mM citrate phosphate buffer pH 7.5 with SYPRO orange; 25°C to 95°C at 1°C/min; maximum intensity of each curve compared
[2] = biological target: type IF CRISPR RNA guided surveillance complex (Csy) (UniProt Q02MM2); assay: ITC; AcrIF9 or AcrIF2 binding to the Csy complex; conditions not told in the text shown (Supplemental Figure S8)

Sequence of AcrIF2 (natural protein) (Q6TM72 whole entry): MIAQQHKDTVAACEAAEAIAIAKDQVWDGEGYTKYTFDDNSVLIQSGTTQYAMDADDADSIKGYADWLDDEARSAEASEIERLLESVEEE

**Q.** How did the increase in temperature at the maximum DSF intensity compared to unbound Csy [1] turn out when AcrIF2 (natural protein) was run?
**A.** Its increase in temperature at the maximum DSF intensity compared to unbound Csy is 3 °C.

**Q.** And the dH [2]?
**A.** Its dH is less than 0.

— paper PMC9638894
